Assay results from publication PMC11897886 (Nucleic Acids Research, 2024).

T1: CBP-Upf1-CH-HD I693R (S. cerevisiae, UniProt P30771 54-851, I693R)
T1 sequence: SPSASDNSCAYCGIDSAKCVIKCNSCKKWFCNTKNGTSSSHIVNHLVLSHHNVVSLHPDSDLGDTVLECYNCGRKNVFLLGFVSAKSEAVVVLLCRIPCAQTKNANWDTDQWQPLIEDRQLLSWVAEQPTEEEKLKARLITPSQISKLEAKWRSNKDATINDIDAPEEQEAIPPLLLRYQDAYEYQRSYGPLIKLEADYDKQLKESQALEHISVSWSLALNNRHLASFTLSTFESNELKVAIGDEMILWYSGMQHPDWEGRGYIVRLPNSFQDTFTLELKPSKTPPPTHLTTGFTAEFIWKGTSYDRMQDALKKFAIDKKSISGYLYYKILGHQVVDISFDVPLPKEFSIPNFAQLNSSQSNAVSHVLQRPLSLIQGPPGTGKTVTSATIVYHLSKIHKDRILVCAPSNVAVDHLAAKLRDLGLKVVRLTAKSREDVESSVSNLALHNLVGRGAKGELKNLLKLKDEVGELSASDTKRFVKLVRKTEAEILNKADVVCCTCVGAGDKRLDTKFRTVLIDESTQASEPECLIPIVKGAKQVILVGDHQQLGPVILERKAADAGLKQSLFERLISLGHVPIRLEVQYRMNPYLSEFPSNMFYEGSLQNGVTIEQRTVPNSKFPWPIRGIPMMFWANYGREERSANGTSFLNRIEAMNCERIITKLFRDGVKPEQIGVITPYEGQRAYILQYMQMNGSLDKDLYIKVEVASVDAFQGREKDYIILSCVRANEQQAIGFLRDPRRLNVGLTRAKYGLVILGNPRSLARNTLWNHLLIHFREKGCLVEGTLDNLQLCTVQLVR

T2: Upf2-Ct (Saccharomyces cerevisiae, UniProt P38798 933-1089)
T2 sequence: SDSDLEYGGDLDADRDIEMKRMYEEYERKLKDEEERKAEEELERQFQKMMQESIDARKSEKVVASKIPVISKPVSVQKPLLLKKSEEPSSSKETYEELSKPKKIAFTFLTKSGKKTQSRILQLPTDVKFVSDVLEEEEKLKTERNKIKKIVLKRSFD

T3: Upf1-FL (Saccharomyces cerevisiae, UniProt P30771 1-971)
T3 sequence: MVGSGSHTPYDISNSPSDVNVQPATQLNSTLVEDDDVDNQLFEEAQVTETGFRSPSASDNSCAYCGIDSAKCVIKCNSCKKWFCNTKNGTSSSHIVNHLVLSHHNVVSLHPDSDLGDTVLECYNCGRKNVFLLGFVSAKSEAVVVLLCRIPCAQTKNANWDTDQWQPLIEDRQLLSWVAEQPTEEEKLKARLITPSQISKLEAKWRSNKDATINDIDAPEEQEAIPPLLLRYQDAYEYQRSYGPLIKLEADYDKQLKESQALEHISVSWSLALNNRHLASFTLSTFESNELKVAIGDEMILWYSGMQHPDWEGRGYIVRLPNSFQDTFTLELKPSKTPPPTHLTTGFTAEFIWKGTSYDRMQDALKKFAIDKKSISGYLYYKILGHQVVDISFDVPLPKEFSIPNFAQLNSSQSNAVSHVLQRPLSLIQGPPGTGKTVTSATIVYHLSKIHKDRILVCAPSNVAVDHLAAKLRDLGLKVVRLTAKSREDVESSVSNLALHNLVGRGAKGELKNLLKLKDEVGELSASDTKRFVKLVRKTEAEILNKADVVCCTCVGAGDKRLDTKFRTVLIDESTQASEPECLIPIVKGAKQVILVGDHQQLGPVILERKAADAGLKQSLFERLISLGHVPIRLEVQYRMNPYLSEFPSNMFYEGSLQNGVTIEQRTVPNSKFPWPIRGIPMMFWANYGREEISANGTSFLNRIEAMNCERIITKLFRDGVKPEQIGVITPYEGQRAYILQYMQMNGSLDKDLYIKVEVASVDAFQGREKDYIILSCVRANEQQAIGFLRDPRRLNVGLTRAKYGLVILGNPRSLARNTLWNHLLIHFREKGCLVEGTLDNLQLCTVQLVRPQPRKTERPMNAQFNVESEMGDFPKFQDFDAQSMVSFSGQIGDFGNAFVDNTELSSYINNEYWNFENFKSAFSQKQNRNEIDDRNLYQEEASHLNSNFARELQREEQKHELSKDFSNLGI

T4: Dcp2-UBM (Saccharomyces cerevisiae, UniProt P53550 434-720)
T4 sequence: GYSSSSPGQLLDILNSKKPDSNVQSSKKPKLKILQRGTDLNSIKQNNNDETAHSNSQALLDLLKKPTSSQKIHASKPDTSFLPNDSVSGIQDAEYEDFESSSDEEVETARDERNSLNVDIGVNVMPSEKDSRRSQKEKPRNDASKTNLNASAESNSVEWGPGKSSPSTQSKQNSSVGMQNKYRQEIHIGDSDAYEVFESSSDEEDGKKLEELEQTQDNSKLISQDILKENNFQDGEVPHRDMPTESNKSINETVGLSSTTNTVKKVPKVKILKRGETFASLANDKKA

T5: Upf1-FL;Nmd4 (Saccharomyces cerevisiae;Saccharomyces …, UniProt P30771;Q12129 1-971;1-218, |)
T5 sequence 1: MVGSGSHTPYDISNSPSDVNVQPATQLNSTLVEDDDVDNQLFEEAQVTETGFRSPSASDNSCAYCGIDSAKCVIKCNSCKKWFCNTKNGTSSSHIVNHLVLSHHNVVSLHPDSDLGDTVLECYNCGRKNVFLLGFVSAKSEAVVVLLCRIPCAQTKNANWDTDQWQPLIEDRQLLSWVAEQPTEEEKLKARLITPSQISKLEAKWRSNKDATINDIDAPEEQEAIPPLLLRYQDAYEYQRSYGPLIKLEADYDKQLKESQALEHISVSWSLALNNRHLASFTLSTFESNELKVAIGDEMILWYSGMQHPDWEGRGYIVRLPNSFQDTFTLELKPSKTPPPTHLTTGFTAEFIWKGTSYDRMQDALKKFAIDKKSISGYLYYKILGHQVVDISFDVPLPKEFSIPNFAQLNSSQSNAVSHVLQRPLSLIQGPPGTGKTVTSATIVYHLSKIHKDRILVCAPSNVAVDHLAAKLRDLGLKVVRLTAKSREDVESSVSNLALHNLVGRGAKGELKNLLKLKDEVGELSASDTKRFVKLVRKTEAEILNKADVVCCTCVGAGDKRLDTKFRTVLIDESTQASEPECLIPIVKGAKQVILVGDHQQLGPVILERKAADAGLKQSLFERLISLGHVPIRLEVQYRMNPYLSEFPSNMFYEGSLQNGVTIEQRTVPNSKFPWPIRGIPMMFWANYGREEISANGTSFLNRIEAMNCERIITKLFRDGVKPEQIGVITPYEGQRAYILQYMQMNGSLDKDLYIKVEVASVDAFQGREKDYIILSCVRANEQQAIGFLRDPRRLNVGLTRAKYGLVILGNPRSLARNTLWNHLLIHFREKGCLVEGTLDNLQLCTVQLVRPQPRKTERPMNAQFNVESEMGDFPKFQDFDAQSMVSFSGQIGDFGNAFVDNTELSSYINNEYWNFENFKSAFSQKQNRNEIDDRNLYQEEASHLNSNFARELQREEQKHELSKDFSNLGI
T5 sequence 2: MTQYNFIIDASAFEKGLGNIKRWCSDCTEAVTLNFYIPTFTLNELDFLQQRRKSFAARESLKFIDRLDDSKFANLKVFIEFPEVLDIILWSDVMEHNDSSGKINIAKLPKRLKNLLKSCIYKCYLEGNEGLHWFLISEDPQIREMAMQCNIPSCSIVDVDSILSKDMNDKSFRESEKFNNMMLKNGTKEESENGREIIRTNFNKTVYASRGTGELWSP

T6: Upf1-FL;Nmd4;Dcp2-UBM (Saccharomyces cerevisiae;Saccharomyces …, UniProt P30771;Q12129;P53550 1-971;1-218;434-720, ||)
T6 sequence 1: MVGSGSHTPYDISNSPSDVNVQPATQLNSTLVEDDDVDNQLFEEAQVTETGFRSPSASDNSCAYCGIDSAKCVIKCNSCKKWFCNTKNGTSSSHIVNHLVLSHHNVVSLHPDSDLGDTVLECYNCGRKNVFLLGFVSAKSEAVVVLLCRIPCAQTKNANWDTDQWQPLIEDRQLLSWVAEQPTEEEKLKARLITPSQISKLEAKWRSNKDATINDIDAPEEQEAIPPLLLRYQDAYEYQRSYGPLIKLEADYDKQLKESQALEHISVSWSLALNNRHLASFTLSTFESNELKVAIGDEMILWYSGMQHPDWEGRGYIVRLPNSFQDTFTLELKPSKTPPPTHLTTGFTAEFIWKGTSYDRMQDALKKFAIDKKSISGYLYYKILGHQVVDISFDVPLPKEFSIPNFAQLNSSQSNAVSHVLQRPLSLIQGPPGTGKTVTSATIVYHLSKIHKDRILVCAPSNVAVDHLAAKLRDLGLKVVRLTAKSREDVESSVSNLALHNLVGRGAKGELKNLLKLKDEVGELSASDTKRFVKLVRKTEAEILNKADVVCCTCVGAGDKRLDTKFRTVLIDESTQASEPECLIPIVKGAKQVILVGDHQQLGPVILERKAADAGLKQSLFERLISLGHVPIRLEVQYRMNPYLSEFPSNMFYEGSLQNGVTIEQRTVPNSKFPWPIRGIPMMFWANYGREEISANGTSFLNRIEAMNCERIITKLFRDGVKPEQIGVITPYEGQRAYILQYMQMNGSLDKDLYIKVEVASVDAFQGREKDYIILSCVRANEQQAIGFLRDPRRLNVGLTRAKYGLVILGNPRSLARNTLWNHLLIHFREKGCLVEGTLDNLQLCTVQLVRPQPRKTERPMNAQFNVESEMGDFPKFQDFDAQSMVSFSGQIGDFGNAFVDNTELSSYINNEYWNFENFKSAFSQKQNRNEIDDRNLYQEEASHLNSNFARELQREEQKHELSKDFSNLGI
T6 sequence 2: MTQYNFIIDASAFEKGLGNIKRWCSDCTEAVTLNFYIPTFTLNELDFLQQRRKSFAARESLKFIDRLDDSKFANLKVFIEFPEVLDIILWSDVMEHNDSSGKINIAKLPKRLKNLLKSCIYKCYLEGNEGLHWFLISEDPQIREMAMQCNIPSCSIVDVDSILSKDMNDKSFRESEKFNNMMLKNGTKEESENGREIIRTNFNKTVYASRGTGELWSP
T6 sequence 3: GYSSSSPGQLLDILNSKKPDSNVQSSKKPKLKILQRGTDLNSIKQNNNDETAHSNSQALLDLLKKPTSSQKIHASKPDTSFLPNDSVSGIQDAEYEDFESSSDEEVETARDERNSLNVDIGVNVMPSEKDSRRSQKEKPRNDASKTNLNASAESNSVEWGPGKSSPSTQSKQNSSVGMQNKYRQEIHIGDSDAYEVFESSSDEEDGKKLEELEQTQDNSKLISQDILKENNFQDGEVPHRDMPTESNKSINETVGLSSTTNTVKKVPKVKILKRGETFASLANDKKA

T7: Upf1-FL;Dcp2-UBM (Saccharomyces cerevisiae;Saccharomyces …, UniProt P30771;P53550 1-971;434-720, |)
T7 sequence 1: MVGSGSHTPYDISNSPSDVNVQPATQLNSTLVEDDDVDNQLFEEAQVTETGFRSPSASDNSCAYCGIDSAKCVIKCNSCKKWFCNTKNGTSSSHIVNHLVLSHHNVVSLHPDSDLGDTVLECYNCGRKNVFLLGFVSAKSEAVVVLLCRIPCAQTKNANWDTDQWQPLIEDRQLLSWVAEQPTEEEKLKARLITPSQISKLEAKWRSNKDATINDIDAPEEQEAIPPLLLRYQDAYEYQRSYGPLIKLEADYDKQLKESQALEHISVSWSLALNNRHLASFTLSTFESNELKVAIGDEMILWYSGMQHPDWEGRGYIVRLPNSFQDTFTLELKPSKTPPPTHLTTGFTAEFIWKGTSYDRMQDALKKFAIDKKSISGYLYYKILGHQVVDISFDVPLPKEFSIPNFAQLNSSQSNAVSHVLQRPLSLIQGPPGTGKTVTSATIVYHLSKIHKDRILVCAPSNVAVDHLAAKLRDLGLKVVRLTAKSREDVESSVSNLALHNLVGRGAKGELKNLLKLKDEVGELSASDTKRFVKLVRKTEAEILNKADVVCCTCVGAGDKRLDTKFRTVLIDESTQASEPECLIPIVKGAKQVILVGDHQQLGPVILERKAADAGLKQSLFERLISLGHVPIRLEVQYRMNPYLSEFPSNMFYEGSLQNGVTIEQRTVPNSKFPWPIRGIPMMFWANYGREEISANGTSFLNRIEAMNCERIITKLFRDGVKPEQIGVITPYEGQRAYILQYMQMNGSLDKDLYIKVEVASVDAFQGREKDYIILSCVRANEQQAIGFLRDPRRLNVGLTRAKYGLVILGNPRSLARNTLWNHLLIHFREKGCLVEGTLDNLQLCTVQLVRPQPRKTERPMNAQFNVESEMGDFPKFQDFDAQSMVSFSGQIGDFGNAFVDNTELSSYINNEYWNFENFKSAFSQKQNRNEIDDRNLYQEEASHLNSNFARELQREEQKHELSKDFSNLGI
T7 sequence 2: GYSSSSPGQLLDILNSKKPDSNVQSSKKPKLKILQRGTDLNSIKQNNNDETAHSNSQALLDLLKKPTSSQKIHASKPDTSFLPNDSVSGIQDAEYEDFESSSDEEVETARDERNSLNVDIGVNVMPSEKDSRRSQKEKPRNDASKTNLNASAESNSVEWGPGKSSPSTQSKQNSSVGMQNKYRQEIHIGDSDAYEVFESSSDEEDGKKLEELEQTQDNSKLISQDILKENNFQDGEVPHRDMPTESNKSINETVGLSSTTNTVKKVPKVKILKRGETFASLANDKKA


Tests used:
CBP-Upf1-CH-HD I693R = molecular target: T1, CBP-Upf1-CH-HD I693R; assay: pull-down
[1] = molecular target: CBP-Upf1-CH-His (S. cerevisiae); assay: fluorescence polarisation
Upf2-Ct = molecular target: T2, Upf2-Ct; assay: pull-down
Upf1-FL = molecular target: T3, Upf1-FL; assay: pull-down
Dcp2-UBM = molecular target: T4, Dcp2-UBM; assay: pull-down
Upf1-FL;Nmd4 = molecular target: T5, Upf1-FL;Nmd4; assay: pull-down
Upf1-FL;Nmd4;Dcp2-UBM = molecular target: T6, Upf1-FL;Nmd4;Dcp2-UBM; assay: pull-down
Upf1-FL;Dcp2-UBM = molecular target: T7, Upf1-FL;Dcp2-UBM; assay: pull-down

Binder | binding result (CBP-Upf1-CH-HD I693R) | Kd [1] [nM] | binding result (Upf2-Ct) | binding result (Upf1-FL) | binding result (Dcp2-UBM) | binding result (Upf1-FL;Nmd4) | binding result (Upf1-FL;Nmd4;Dcp2-UBM) | binding result (Upf1-FL;Dcp2-UBM)
Upf2 (933-1089)-His (domain or fragment) SDSDLEYGGDLDADRDIEMKRMYEEYERKLKDEEERKAEEELERQFQKMMQESIDARKSEKVVASKIPVISKPVSVQKPLLLKKSEEPSSSKETYEELSKPKKIAFTFLTKSGKKTQSRILQLPTDVKFVSDVLEEEEKLKTERNKIKKIVLKRSFD | binds | 430 | – | – | – | – | – | –
CGUCCAUCUGGUCAUCUAGUGAUAUCAUCG (ssRNA) [3'-biotinylated RNA (30-mer in Methods, called 33-mer in Results)] | – | – | no binding | binds | no binding | binds | binds | binds
